Experimental data from patent publication US7491523B2, “Voltage-dependent calcium channel beta subunit functional core” (priority 2004, dated 2009).
fluorescein = fluorescein label

Tests used:
β = conditions: AID with β; cited from earlier work
Cav1.2 (α1C) = target: T1, Cav1.2 (α1C) (Homo sapiens, UniProt Q13936); assay: Two-electrode voltage clamp of Xenopus oocytes expressing Cav1.2, microinjected with β proteins; format: cell-based, Xenopus laevis; conditions: for current amplitude increase and change of steady-state activation: Cav1.2 currents, protein injection into oocytes; for Current amplitude, I at 20 mV / Current amplitude, I at 30 mV: Xenopus oocytes, α1.2, mean ± SEM; for Steady-state activation, V1/2 (membrane potential for half-maximal activation) / Steady-state activation, k (slope factor): from I-V curve, mean ± SEM
T1 construct: expressed in transfected cells; host or cells: Xenopus laevis oocytes, mRNA injection
T1 sequence (Q13936 whole entry, species assumed): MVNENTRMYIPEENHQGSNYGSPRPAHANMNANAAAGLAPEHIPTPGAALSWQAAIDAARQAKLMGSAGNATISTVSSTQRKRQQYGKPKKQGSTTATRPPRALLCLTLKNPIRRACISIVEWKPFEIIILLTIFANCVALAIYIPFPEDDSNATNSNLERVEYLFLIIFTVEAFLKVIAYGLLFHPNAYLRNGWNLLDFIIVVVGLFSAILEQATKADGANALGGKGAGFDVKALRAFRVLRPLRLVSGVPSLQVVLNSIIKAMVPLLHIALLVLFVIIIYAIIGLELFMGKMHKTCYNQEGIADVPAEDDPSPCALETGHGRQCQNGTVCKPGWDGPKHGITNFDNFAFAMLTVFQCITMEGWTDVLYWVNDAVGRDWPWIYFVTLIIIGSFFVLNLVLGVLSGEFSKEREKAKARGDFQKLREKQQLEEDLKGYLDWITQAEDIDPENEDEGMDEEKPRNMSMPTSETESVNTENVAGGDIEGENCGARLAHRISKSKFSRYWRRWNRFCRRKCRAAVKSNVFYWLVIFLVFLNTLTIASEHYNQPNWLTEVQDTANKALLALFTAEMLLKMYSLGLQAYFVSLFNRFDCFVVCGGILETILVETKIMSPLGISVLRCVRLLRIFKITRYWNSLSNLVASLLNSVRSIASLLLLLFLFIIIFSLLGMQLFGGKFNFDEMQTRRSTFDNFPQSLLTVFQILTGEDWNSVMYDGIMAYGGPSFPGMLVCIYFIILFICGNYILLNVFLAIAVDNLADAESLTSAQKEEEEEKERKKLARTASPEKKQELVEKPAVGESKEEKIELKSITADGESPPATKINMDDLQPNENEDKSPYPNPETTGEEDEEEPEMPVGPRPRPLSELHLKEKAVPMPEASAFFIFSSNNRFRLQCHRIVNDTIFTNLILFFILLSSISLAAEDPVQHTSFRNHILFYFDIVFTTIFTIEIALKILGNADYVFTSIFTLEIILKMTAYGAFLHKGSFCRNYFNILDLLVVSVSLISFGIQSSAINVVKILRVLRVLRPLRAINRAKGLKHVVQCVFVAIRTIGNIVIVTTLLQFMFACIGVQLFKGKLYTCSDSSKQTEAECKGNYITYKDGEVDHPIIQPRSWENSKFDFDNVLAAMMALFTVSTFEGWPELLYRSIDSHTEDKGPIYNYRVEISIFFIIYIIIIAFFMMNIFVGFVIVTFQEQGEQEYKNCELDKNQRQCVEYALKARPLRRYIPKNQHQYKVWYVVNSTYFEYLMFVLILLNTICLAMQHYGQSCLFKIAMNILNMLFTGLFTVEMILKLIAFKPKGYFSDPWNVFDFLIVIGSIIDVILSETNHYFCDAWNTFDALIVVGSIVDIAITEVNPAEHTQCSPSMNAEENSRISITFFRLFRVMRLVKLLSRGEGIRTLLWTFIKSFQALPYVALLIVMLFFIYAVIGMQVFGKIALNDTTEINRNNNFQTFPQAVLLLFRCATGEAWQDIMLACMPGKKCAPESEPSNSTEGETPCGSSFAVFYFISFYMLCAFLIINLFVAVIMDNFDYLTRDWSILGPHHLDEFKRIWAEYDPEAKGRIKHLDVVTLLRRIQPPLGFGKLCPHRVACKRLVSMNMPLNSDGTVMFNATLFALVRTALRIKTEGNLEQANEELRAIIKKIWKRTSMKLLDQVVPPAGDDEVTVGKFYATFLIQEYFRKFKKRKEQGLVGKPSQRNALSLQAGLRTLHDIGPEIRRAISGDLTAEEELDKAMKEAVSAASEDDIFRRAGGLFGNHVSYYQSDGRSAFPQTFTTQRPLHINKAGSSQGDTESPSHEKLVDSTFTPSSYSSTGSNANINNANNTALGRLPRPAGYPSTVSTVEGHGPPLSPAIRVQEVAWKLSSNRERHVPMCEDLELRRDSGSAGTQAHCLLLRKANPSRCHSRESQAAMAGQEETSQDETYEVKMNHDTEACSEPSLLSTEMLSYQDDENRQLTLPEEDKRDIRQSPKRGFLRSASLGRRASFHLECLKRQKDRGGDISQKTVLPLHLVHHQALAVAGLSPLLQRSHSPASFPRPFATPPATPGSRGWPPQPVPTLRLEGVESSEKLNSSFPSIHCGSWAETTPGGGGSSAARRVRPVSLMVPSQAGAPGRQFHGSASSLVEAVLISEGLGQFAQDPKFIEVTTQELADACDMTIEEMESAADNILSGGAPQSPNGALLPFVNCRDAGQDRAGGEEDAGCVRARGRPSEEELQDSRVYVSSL
Experimental: Preparation of Xenopus laevis oocytes, injection of mRNA of VDCC subunits, and electrophysiological recording and analysis were performed, as described (Kang, M. G., Chen, C. C., Felix, R., Letts, V. A., Frankel, W. N., Mori, Y., and Campbell, K. P. (2001) J Biol Chem 276, 32917-32924). The negative control group were oocytes expressing CaV1.2 (α1C) subunit only by mRNA injection followed by injection of protein buffer (PB). The positive control group were oocytes expressing α1C and β3 subunits by mRNA injection, followed by injection of protein buffer (PB). The oocytes of experimental groups were injected with α1C mRNA followed by injection of VDCC β proteins, two days after the mRNA injection. Injection of protein ([…] of protein per oocyte) was performed similarly as mRNA injection. Oocytes injected with VDCC β proteins were incubated one more day and the expressed calcium channel currents were recorded using the two-electrode voltage-clamp technique.
In order to determine that the bacterially expressed, recombinant proteins were physiologically active, two-electrode, two-voltage-clamp measurements of Xenopus oocytes expressing α1 and microinjected with our protein samples was performed. […] The current amplitude increase and change of steady-state activation are statistically significant in all experimental groups except a group injected with β2a domain I protein.

[1] = target: T2, fluorescein-labeled AID peptide (AID motif of the CaV1.1 I-II linker) (Oryctolagus cuniculus, UniProt P07293, M367N); assay: AID peptide binding assay (fluorescence polarization): VDCC β constructs titrated against labeled AID peptide; conditions: identical protein amounts, after incubation with TEV protease, FIG. 6c
T2 construct: fluorescein label (chemical, on the amino-terminus); made in house; host or cells: synthetic peptide, HPLC-purified
T2 sequence (P07293 with tags, fused parts or gaps M367N): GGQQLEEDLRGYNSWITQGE
From the text: Fluorescence polarization was used to determine the equilibrium dissociation constant (KD) for the interaction between a fluorescein-labeled AID peptide, purified and various VDCC β constructs. The synthetic peptide was purified by HPLC reverse chromatography using a C18 column (Vydac) with a shallow acetonitrile gradient 20-80% (both solvents were supplemented with 0.05% trifluoracetic acid). Its sequence is derived from the AID motif of: the CaV1.1 I-II linker and is as follows: fluorescein-[…]-COOH (SEQ ID NO: 14). A mutant peptide, fluorescein-[…]-COOH (SEQ ID NO: 15) was prepared, in addition. […] Polarization measurements were taken with an ISS K2 fluorescence spectrophotometer at excitation and emission wavelengths of 492 and 520 nm, respectively, at 20° C., maintained by a temperature-controlled water bath. […] Binding isotherms for the various samples were measured three independent times. Binding data were analyzed in SigmaPlot (SPSS) by nonlinear regression used to fit a binding function as defined by the following equation: […]
where X is the concentration of free ligand, ΔP is the change in fluorescence polarization of the fluorophore (baseline polarization of the labeled peptide alone was subtracted), Bmax is the maximum change in polarization upon saturation and KD is the concentration of ligand required to reach half maximal binding. […]

β2a protein [2] = target: T3, β2a protein (Oryctolagus cuniculus, UniProt P54288); assay: AID peptide binding assay (fluorescence polarization): AID peptide variants against β2a; parameters: species or system rabbit; conditions: up to 350 nM β2a protein
T3 construct: Equilibrium isotherm titrations were performed with full-length β2a and linkerless core β2a; 8xHis tag followed by a TEV protease site (N, cleaved yes); made in house; host or cells: E. coli BL-21 Tuner with RIL Codon Plus plasmid, modified pET21 vector
T3 sequence (P54288 2-606 isoform P54288-2 P122R): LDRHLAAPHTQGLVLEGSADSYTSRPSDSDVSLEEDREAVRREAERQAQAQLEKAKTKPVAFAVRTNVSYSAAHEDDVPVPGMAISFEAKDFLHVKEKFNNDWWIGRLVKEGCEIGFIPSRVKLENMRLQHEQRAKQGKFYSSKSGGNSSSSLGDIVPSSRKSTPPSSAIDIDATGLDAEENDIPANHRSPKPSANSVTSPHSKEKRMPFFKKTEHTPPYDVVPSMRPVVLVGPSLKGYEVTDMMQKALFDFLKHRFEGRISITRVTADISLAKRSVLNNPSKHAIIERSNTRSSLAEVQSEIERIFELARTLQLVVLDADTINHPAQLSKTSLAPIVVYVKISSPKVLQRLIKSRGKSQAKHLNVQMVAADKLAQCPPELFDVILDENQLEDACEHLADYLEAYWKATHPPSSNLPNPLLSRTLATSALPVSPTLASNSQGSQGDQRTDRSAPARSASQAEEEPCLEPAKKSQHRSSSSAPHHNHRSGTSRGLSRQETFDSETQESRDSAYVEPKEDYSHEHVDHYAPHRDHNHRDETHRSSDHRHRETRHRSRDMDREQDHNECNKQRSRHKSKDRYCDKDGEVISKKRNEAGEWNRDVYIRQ
From the text: Fluorescence polarization was used to determine the equilibrium dissociation constant (KD) for the interaction between a fluorescein-labeled AID peptide, purified and various VDCC β constructs. The synthetic peptide was purified by HPLC reverse chromatography using a C18 column (Vydac) with a shallow acetonitrile gradient 20-80% (both solvents were supplemented with 0.05% trifluoracetic acid). Its sequence is derived from the AID motif of: the CaV1.1 I-II linker and is as follows: fluorescein-[…]-COOH (SEQ ID NO: 14). A mutant peptide, fluorescein-[…]-COOH (SEQ ID NO: 15) was prepared, in addition. Increasing concentrations of protein were incubated with 0.5 nM labeled peptide for 10 min in the dark at room temperature. Polarization measurements were taken with an ISS K2 fluorescence spectrophotometer at excitation and emission wavelengths of 492 and 520 nm, respectively, at 20° C., maintained by a temperature-controlled water bath. Polarization measurements were made with integration times on the order of 20 seconds, achieving a standard deviation of 5 percent of signal. Binding isotherms for the various samples were measured three independent times. Binding data were analyzed in SigmaPlot (SPSS) by nonlinear regression used to fit a binding function as defined by the following equation: […]

β2a protein [3] = target: T4, β2a protein (Oryctolagus cuniculus, UniProt P54288, P148R); conditions: single amino acid change Y to S; cited from earlier work
T4 construct: Equilibrium isotherm titrations were performed with full-length β2a and linkerless core β2a; 8xHis tag followed by a TEV protease site (N, cleaved yes); made in house; host or cells: E. coli BL-21 Tuner with RIL Codon Plus plasmid, modified pET21 vector
T4 sequence (P54288 2-606 isoform P54288-2 P122R): as above

Substance	koff (β) [s⁻¹]	current amplitude increase and change of steady-state activation (Cav1.2 (α1C))	Current amplitude, I at 20 mV (Cav1.2 (α1C))	Current amplitude, I at 30 mV (Cav1.2 (α1C)) [µA]	Steady-state activation, V1/2 (membrane potential for half-maximal activation) (Cav1.2 (α1C)) [mV]	Steady-state activation, k (slope factor) (Cav1.2 (α1C)) [mV]	relative binding to labeled AID peptide [1]	binding of AID peptide to β2a (β2a protein [2])	binding capability relative to WT (β2a protein [3])
AID: α1 interaction domain sequence of the α1 I-II linker that binds β	~0.005	–	–	–	–	–	–	–	–
Core β2 Pro.: injected recombinant β2a core protein	–	corresponds well to full-length protein activity	−0.87 ± 0.09 A	-0.7 ± 0.07	6.84 ± 0.83	8.43 ± 0.23	–	–	–
Core β3 Pro.: β3 core protein	–	–	-0.45 ± 0.04 µA	-0.41 ± 0.03	10.65 ± 4.46	10.06 ± 1.15	–	–	–
Full β2 Pro.: injected recombinant full-length β2a protein, later found to contain mutation P122R	–	–	-0.71 ± 0.09 µA	-0.49 ± 0.06	3.68 ± 0.33	8.48 ± 0.53	–	–	–
Full β3 Pro.: recombinant full-length rat VDCC β3 subunit protein	–	–	-0.47 ± 0.04 µA	-0.44 ± 0.03	10.03 ± 3.36	10.56 ± 0.42	–	–	–
d1 + d2 β2 Pro.: domain I + domain II prepared by proteolysis of full length protein and subsequent purification	–	significant changes in the current amplitude and activation shift	-0.44 ± 0.04 µA	-0.34 ± 0.03	3.24 ± 0.93	9.49 ± 0.92	–	–	–
domain II: β2a domain II released from NusA-domain II fusion by incubation with TEV protease	–	–	–	–	–	–	significant binding affinity for the AID	–	–
fluorescein-GGQQLEEDLRGSNSWITQGE-COOH (SEQ ID NO: 15) (fluorescein-GGQQLEEDLRGSNSWITQGE-OH; listed as Oryctolagus cuniculus) [mutant AID peptide, mutant AID peptide with single amino acid change Y to S]	–	–	–	–	–	–	–	No binding	less than five percent binding capability of WT
β2a domain I: recombinant β2a domain I, residues 25 to 146	–	–	-0.16 ± 0.01 µA	-0.18 ± 0.02	24.00 ± 3.01	12.18 ± 0.49	negligible	–	–
